Laboratory results reported in US20250339493A1, “METHODS OF USING NEUREGULIN-4 COMPOUNDS” (priority 2022, published 2025).

What was measured:
[1] = Single-ascending dose study in healthy participants: plasma pharmacokinetics after single SC or IV dose; design: species or system human; conditions: in vivo
From the text: A multiple-center, investigator- and participant-blind, randomized, placebo-controlled, single-ascending dose study is designed to evaluate the safety and tolerability of a single subcutaneous (SC) dose or an intravenous (IV) dose of the NRG4 compound of SEQ ID NO:1 in healthy participants. Cohorts 1-5 are intended to receive a single SC dose of the NRG4 compound or placebo. Cohort 6 is used to assess a single IV injection of the NRG4 compound. This cohort is to enable an estimation of absolute bioavailability of the NRG4 compound. Doses for the cohorts are as follows: • Cohort 1:1 mg (6 participants NRG4 compound; 2 participants placebo)· • Cohort 2:3 mg (6 participants NRG4 compound; 2 participants placebo). • Cohort 3:10 mg (6 participants NRG4 compound; 2 participants placebo). • Cohort 4:30 mg (6 participants NRG4 compound; 2 participants placebo). • Cohort 5:60 mg (6 participants NRG4 compound; 2 participants placebo). • Cohort 6 (8 participants 3 mg NRG4 compound IV) 48 participants received a dose of NRG4 compound or placebo, with eight males, and 40 females. The age range of the participants was 25 to 65 years. A stable dose of antihypertensive medication, with the exception of beta blockers, and lipid lowering medication were allowed. The study intervention was administered either via a single SC injection into the lower abdominal region or as an IV bolus from a syringe to an indwelling venous catheter. Study interventions administered are summarized in Table 2: On Day 1, participants receive a single dose of their assigned treatment (either NRG4 compound or placebo) for first 5 cohorts and NRG4 compound for the final IV cohort. PK sampling and safety assessments, including AEs, medical assessments, clinical laboratory tests, vital signs, and ECGs, were performed at predefined times through discharge from the CRU on Day 4. Dose escalated cohorts were only initiated after satisfactory review of the safety results from all participants receiving NRG4 compound in the preceding cohort through Day 4. Participants returned to the CRU for outpatient visits on Days 7 and 15 for PK, safety, and immunogenicity assessments, as appropriate. Follow-up visit for PK, safety, and immunogenicity monitoring occurred on Day 29. At the visits and times specified in the protocol venous blood samples of approximately 3 mL each were collected to determine the plasma concentrations of NRG4 compound. PK parameter estimates for NRG4 compound were calculated by standard noncompartmental methods of analysis using Phoenix WinNonlin Version 8.1. […] The PK parameters were summarized and listed separately for SC and IV-dosed cohorts. The plasma concentrations of the NRG4 compound were plotted and summarized. The dose proportionality for SC doses of NRG4 compound were assessed for the log-transformed Cmax, AUC (0-∞), and AUC (0-tlast) using a power model (where log-dose acted as an explanatory variable) to estimate ratios of dose normalized geometric means and corresponding 90% CIs. The estimated ratio of dose-normalized geometric means of PK parameters between the highest and lowest doses were used to assess dose proportionality.

[2] = Single-ascending dose study in healthy participants: safety and tolerability; assay type: in vivo
From the text: A multiple-center, investigator- and participant-blind, randomized, placebo-controlled, single-ascending dose study is designed to evaluate the safety and tolerability of a single subcutaneous (SC) dose or an intravenous (IV) dose of the NRG4 compound of SEQ ID NO:1 in healthy participants. Cohorts 1-5 are intended to receive a single SC dose of the NRG4 compound or placebo. Cohort 6 is used to assess a single IV injection of the NRG4 compound. This cohort is to enable an estimation of absolute bioavailability of the NRG4 compound. Doses for the cohorts are as follows: • Cohort 1:1 mg (6 participants NRG4 compound; 2 participants placebo)· • Cohort 2:3 mg (6 participants NRG4 compound; 2 participants placebo). • Cohort 3:10 mg (6 participants NRG4 compound; 2 participants placebo). • Cohort 4:30 mg (6 participants NRG4 compound; 2 participants placebo). • Cohort 5:60 mg (6 participants NRG4 compound; 2 participants placebo). • Cohort 6 (8 participants 3 mg NRG4 compound IV)
48 participants received a dose of NRG4 compound or placebo, with eight males, and 40 females. The age range of the participants was 25 to 65 years. A stable dose of antihypertensive medication, with the exception of beta blockers, and lipid lowering medication were allowed. […]

[3] = Rat continuous SC infusion toxicology study; assay type: in vivo
Method: (§1) Table 3 presents the estimated margins of safety of 21 mg/day infused for 24 hours and 140 mg/day infused for 96 hours doses of NRG4 compound. The anticipated therapeutic benefit for patients with HFrEF outweighs any potential risks identified in the nonclinical safety profile.

[4] = Cynomolgus continuous SC infusion toxicology study; assay type: in vivo, cynomolgus monkey
Method: as §1

[5] = rat non-repro NOAEL (F), 16.1 mg/kg/day, 96 h SC infusion
[6] = rat, in vivo, sc, 1.6 mg/kg/day
[7] = cynomolgus monkey, in vivo, sc, 156 mg/kg/day
[8] = monkey NOAEL (M + F), 12.6 mg/kg/day, 96 h SC infusion

NRG4 compound: NRG4 compound comprising amino acid sequence SEQ ID NO:1: GGGGSGHEEPCGPSHKSFCLNGGLCYQIPTIPSPFCRCVENYTGARCEKVEL; selective HER4 binding (GGGGSGHEEPCGPSHKSFCLNGGLCYQIPTIPSPFCRCVENYTGARCEKVFL)
geometric mean F (absolute bioavailability) [1]: 104%
geometric mean CL ([1]; iv): 6.01 L/h
geometric mean Vss ([1]; iv): 13.6 L
geometric mean Vz ([1]; iv): 22.0 L
geometric mean t1/2 ([1]; iv): 2.53 h
dose proportionality of AUC (0-0) ([1]; sc): slightly higher than proportional
dose proportionality of Cmax ([1]; sc): slightly less than proportional
dose proportionality of PK ([1]; sc): increase approximately proportionally
geometric mean CL/F ([1]; sc): 4.88 to 6.05 L/h
geometric mean Vz/F ([1]; sc): 19.2 to 24.3 L
geometric mean t1/2 ([1]; sc): 2.45 h
mean CL/F ([1]; sc): 4.9 to 6.05 L/h
mean half-life ([1]; sc): 2.20 to 3.21 h
median tmax ([1]; sc): 2.0 h
tmax range ([1]; sc): 1.00 to 4.08 h
t½ ([1]; sc): 2.5 to 3 h
overall safety and tolerability ([2]; in vivo): safe and well-tolerated
deaths, serious adverse events, discontinuations due to adverse events ([2]; single SC 1 to 60 mg or IV 3 mg, healthy participants): no deaths, serious adverse events (SAEs) or discontinuations due to adverse events were reported
AUC0-t [3, 5]: 53.3 µg·h/mL
Cave, ss [3, 5]: 0.54 µg/mL
Non-repro NOAEL (F) dose ([3]; rat, female, continuous SC infusion 96 h): 16.1 mg/kg/day
AUC0-t [3, 6]: 7.17 µg·h/mL
Cave, ss [3, 6]: 0.072 µg/mL
LOAEL (M) dose ([3]; rat, male, continuous SC infusion 96 h): 1.6 mg/kg/day
Cave, ss Multiple, Max Dose ([4]; cynomolgus monkey, in vivo): 16.9
Cave, ss Multiple, Start Dose ([4]; cynomolgus monkey, in vivo): 109
AUC0-t [4, 7]: 1840 µg·h/mL
Cave, ss [4, 7]: 18.6 µg/mL
AUC0-t [4, 8]: 148 µg·h/mL
Cave, ss [4, 8]: 1.49 µg/mL
NOAEL (M + F) dose ([4]; monkey, continuous SC infusion 96 h): 12.6 mg/kg/day
